This is an account of results in PMC9922279.

In this assay the target is Trimeric polymerase with PB2 71-73A (PB1 WT, PB2 71-73A, strep-tagged PA). To be noted: parent: est. 1.0; read off a plot.

As for “Trimeric influenza A virus A/WSN/1933 (H1N1) polymerase (PB1 wild type, PB2, HA-tagged PA) (from UniProt P15659) PB2 71-73A”, the ratio to parent is 0.5 n-fold of WT.
